Results taken from the supplement of paper PMC9170038.

System: MS2 coat protein
Assay: apparent KD of MS2 coat protein; designed switch direction (-1 OFF switch, 1 ON switch): -1; higher = weaker reporter binding
Summary of the method: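 Designed RNA switches sharing common flanks were transcribed on Illumina chips by stalled E. coli RNA polymerase. They were titrated with SNAP-549-labelled MS2 coat protein, from 0.7 or 1.5 nM doubling to 3 µM, in Tris-HCl pH 7.5 buffer with KCl, MgCl2, BSA, DTT, tRNA and Tween-20. Titrations ran without input, with 200 uM small-molecule ligand, or with an oligonucleotide input. The apparent KD of each design is the median over its clusters, after curve-fitting of normalised cluster fluorescence.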

[1] = input ligand: microRNA oligo, concentration not stated
[2] = Eterna round: R95, input ligand: microRNA oligo, concentration not stated
[3] = Eterna round: R95, input ligand: FMN 200 uM
[4] = Eterna round: R95, input ligand: none

Sequence | apparent KD of MS2 coat protein (input ligand: FMN 200 uM) [nM] | apparent KD of MS2 coat protein [1] [nM] | apparent KD of MS2 coat protein (input ligand: none) [nM] | apparent KD of MS2 coat protein [2] [nM] | apparent KD of MS2 coat protein [3] [nM] | apparent KD of MS2 coat protein [4] [nM]
AAGUCAGCAGGAUAUGCGAUGUUGGGCUAGGUAGCGUGACCACAUGAGGAUCACCCAUGUAGAAGGGCUGGCUA [EX2 Malc#36] (Eterna round: R96, puzzle: Exclusion 2) | 45.6 | 21.9 | 29.7 | – | – | –
CUUAUGUCAGGAUAUUAGUAGUAAAUGAAUAAAAUUAUUACUGAGAAGGGACAUGAGGAUCACCCAUGUUCCUC [Mat - Exclusion 4 - Eli Mod - D4] (Eterna round: R97, puzzle: Exclusion 4) | 149 | – | 19.6 | – | – | –
UCUGGUCGAGGAUAUACAUGAGGAUCACCCAUGUGGUCACGUGACUUCGGUCACGAAUGUAGAAGGCGACCAGA [E3/3-A6] (Eterna round: R97, puzzle: Exclusion 3) | 26.7 | – | 51 | – | – | –
UUUGGUGUAGGAUAUACAUGAGGAUCACCCAUGUGCUCCUGCGAGUUCGAAUCCAAAGGUAGAAGGGCGCUAAU [Eternabot (L2) Solution 83] (Eterna round: R97, puzzle: Exclusion 3) | 23.3 | – | 21.2 | – | – | –
CGCAAGUUAGGAUAUGACGCGAAUUUCCGGCUUUGGCCGGAUCAGAAGGAACUUGAGGAUCACCCAAGUGGCCG [Adia] (Eterna round: R97, puzzle: Exclusion 4) | 20.1 | – | 15.9 | – | – | –
UUGUUGUAUGUAGGAUAUGCAUAUUAUUAUUAUGCAGAAGGACAUGAGGAUCACCCAUGUAUGUUAUUAUUAUGUGUUAUGUGU [Title] (Eterna round: R96, puzzle: Exclusion NG 1) | – | 33.9 | – | – | – | –
AGCUGUGGCCGAGGAUAUCUAAACCUCAAAACCGAGGUAUACUCGGACAUGAGGAUCACCCAUGUAGAGAAGGCGGUCUCAGCA [Eli eng2 - 036] (Eterna round: R96, puzzle: Exclusion NG 2) | 107 | 190 | 443 | – | – | –
UACCUGAGGCAAAGCUUUAGGCUUACAUGAGGAUCACCCAUGUAGGAUAUGGUAGGCAAAGCUUACCAGAAGGACAUGGAAAUU [Mat - Exclusion NG 3 - Mod of JL - D23] (Eterna round: R96, puzzle: Exclusion NG 3) | 398 | 68.1 | 86.8 | – | – | –
UGUGCUCUAGGAUAUGCGUAAGCUGAUACGUCAGCAGGUCUACAUGAGGAUCACCCAUGUAGAAGGAGAGUACU [jl-ex2-4.00] (Eterna round: R97, puzzle: Exclusion 2) | 18.6 | – | 20.8 | – | – | –
ACAAACAACAUAGGAUAUCUGCGGGUGUCAGUGCUCAUGGAUCUCCACAUGAGGAUCACCCAUGUAGAGAAGGAUGAACGCUUA [Retionzaan] (Eterna round: R96, puzzle: Exclusion NG 2) | 82.4 | 8.9 | 14.1 | – | – | –
UCAGUUCUGCAAGGAUAUCGUCCUAGUUUGGUUCGAGAAGGUGCUUUUGUUUUUUCUUUGUGUUGACAUGAGGAUCACCCAUGU [JR_ExcNG1_Sub053] (Eterna round: R96, puzzle: Exclusion NG 1) | 20.7 | 13.8 | 27.1 | – | – | –
UUUGUCUGUGUGAGGAUAUACUUGUUUGGGUUUUUGUAGAAGGCACAUGAGGAUCACCCAUGUAUUUUGUUGUG [JR_BME4_Sub017] (puzzle: Brourd's mod of Exclusion 4) | – | – | – | 49.7 | – | –
CAGUACUGAGGAUAUACAUGAGGAUCACCCAUGUGCUCAAAGUAGGAUACUACUAUUAGUAGAAGGCAGUACUG [Fiskers Ex 3 828 mod 21] (puzzle: Exclusion 3) | – | – | – | 23.5 | – | –
UGUGCGUCAGGAUAUUCUACUUAUUACAUGAGGAUCACCCAUGUGAAUGUACAAGGGUGUGAAGAAGGGACUUGUC [LRO-Excl5-05-mod A17d by Omei] (Eterna round: R97, puzzle: Exclusion 5) | 194 | – | 798 | – | – | –
ACGCAUUGCCUUUGGUAGUGCGUUACAUGAGGAUCACCCAUGUAGGAUAUGGUAGGCUUUGCUUACCAGAAGGACAUGAUAAUU [JL ENG3 1.02] (Eterna round: R96, puzzle: Exclusion NG 3) | 195 | 29.1 | 37.4 | – | – | –
GCGAGCAGACGGAGAUCCAACAUGAGGAUCACCCAUGUCUCGCAAGCUUUUUGCUUGUCUUAUCCUCCUCUGUUUAG [Design #8] (Eterna round: R97, puzzle: Sensor, turn-off variant 1) | 81.3 | – | 80.4 | – | – | –
CGUGACUGAGGAUAUCUAUAAUGUCACAUGAGGAUCACCCAUGUCCAGCGAAAGCUGGAGGGAGAAGGCAGUCACG [Fiskers Ex 5 - 33] (puzzle: Exclusion 5) | – | – | – | 55.5 | 29.4 | 74.6
AGUGUGUGGCAGGAUAUUCCGGUCGUUGGUCGGGAAGAAGGGUCUACAUGAGGAUCACCCAUGUGAGCGGUUGA [Ex6 #50] (Eterna round: R97, puzzle: Exclusion 6) | 489 | – | 379 | – | – | –

Sequence | apparent KD of MS2 coat protein (input ligand: FMN 200 uM) [nM] | apparent KD of MS2 coat protein [1] [nM] | apparent KD of MS2 coat protein (input ligand: none) [nM] | apparent KD of MS2 coat protein [2] [nM] | apparent KD of MS2 coat protein [3] [nM] | apparent KD of MS2 coat protein [4] [nM]
CGGCGGGCAGGAUAUGGUAAUAAUUACAUGAGGAUCACCCAUGUGGAUAUAUGGGAAUAACCAGAAGGGCUUGUUG [-20.1, -20 kcal, A 30%] (Eterna round: R97, puzzle: Exclusion 5) | 63.2 | – | 74.4 | – | – | –
CUGGUGUGAGGAUAUCAGGGCGCGCCCAAGGGCACGCCAAAUGAGAAGGCACAUGAGGAUCACCCAUGUGGGAC [Erzala] (puzzle: Exclusion 4) | – | – | – | 31.4 | 45.6 | 35.3
AUAAGGUCAGGAUAUGCUUGGCGGAUUCUGGUGUCCAAAUGACAUGAGGAUCACCCAUGUAGAAGGGACAUCAG [Leonlexe] (Eterna round: R97, puzzle: Exclusion 2) | 12.4 | – | 14.1 | – | – | –
AUAUUGUGAGGAUAUGUACUUAGUAUCGAAAGAUACUAAGUUCAGAAGGCACAUGAGGAUCACCCAUGUUUCUC [Long static hairpin v13] (Eterna round: R97, puzzle: Exclusion 4) | 805 | – | 63.5 | – | – | –
GCAGGUUAAGUCAGGAUAUACCUAUGGAUACAUAGGUAGAAGGGACAUGAGGAUCACCCAUGUGCCUCACCUGC [Mod of Eli - Jieux - Brourd's mod of Exclusion 4] (Eterna round: R97, puzzle: Brourd's mod of Exclusion 4) | 109 | – | 26.1 | – | – | –
UGUCAGAUGGUAGGAUAUCUAUAUCGAGUGACCCUUUCAUAACAUGAGGAUCACCCAUGUCGGUGGGAGAAGGGCCGUAUGGUG [salish99_ExNG02_R04_029] (Eterna round: R96, puzzle: Exclusion NG 2) | 28.6 | 23.2 | 28.5 | – | – | –
CUGAUGUUAGGAUAUCAGGCGCCCGCCACUGGCAAAGCGCAUGAGAAGGGACAUGAGGAUCACCCAUGUAGUAA [Ussoisrebe] (puzzle: Exclusion 4) | – | – | – | 27.7 | – | –
GCUGCGCGAGGAUAUGCGGUUUGUGCUUUGGCCCGUGGCGUACAUGAGGAUCACCCAUGUAGAAGGCGUGUGGG [Apr-15 SS2-53] (puzzle: Exclusion 2) | – | – | – | 18.1 | – | –
CAGUACUGAGGAUAUACAUGAGGAUCACCCAUGUGUUCGAGCUAGGAAACUAGCAAAAGUAGAAGGCAGUACUG [salish99_ex3_r3_080] (puzzle: Exclusion 3) | – | – | – | 15.4 | 85.2 | 14.9
CAGCCCUGAGGAUAUACAUGAGGAUCACCCAUGUGAAGAACGGGAAACGAAACCCUCAGUAGAAGGCGGGUCAU [Eternabot (Original) Solution 14] (Eterna round: R97, puzzle: Exclusion 3) | 131 | – | 58.9 | – | – | –
UUUUAACAUGAGGAUCACCCAUGUGAGGAUAUCGAAAUUUAUAUUAAUAUUAAUUAUUCGAGAAGGCACAUUUU [JMF 29] (puzzle: Exclusion 1) | – | – | – | 114 | – | –
AUCACGGAUGUAAGGAUAUACAAAACCAUAAGGUAGUAGAAGGUACAUGAGGAUCACCCAUGUGCAUAUGUUUA [BmEX4 C.14] (Eterna round: R97, puzzle: Brourd's mod of Exclusion 4) | 18.5 | – | 16.2 | – | – | –
AACUUCUGAGGAUAUACAUAGAUUUACAUGAGGAUCACCCAUGUUCCUCUAUGUAUAAAUGUAGAAGGCAGAAGAG [Mat - Exclusion 5 - JL Mod - D63] (Eterna round: R97, puzzle: Exclusion 5) | 71.3 | – | 17.2 | – | – | –
AUUUUAACAUAGGAUAUCGAAUUUAUUAUUUAACGAGAAGGAUGAACAUGAGGAUCACCCAUGUGGUAUCAUGG [JL-ex6-3.02] (puzzle: Exclusion 6) | – | – | – | 204 | – | –
CAUGGUUAACGAUUAUUCAACAUGAGGAUCACCCAUGUCUCUUUUUCUUUUUGCUCGUCUUAUCCUCCUUUGUUCAC [JR_STOV1_v2_Sub0102] (Eterna round: R97, puzzle: Sensor, turn-off variant 1) | 379 | – | 412 | – | – | –
UAGAUGGGAGGAUAUACGUAGAUGCAGGUUCGUGUGGUGCUACAUGAGGAUCACCCAUGUAGAAGGCCCGUCUU [JL-ex2-2.29 Mayanne mod] (Eterna round: R96, puzzle: Exclusion 2) | 69.4 | 14.1 | 18.4 | – | – | –
CACUUACAUGAGGAUCACCCAUGUGAGGAUAUCGUGACCAGACGAGAAGUCUAUGUCACGAGAAGGCACUUGGG [Exclusion 1 (Mod 2 solution 97 by Eternabot)] (Eterna round: R97, puzzle: Exclusion 1) | 114 | – | 314 | – | – | –
